Reference: the supplement of paper PMC10126150
± gives the standard deviation of the averaged measurements.

Tested on: ATP
Assay: switch fluorescence ratio, 500 uM ATP over buffer (Cy3 cluster intensity, sum of 5 cycles each) (fold (ratio)); higher = stronger signal-on switching upon ATP binding; sequences stand for … in TCGTCGGCAGCGTCAGATGTGTATAAGAGACAGTTTTTTTTTTTTTTTTTTTTTTTTT…TC
Settings: aptamer strand: ATP DNA aptamer (quencher-CACCTGGGGGAGTATTGCGGAGGAAGG + anchor), 100 nM annealed; ATP concentration: 500 uM
Method in brief: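 Between each of five buffer/ATP cycles, the flow-cell was stripped with NaOH and re-annealed. Each cycle imaged Cy3-labelled switching-strand clusters, annealed to 100 nM quencher-labelled ATP aptamer on a modified Illumina MiSeq flow-cell, first in selection buffer and then after 15 min with 500 uM ATP at 22 °C. The fluorescence ratio is summed target-cycle over summed buffer-cycle Cy3 intensity per cluster, averaged per switch-domain sequence, with clusters outside 100-1000 RFU excluded.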
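Note: ATP exposure 15 min at 22 °C before imaging.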

| Sequence | switch fluorescence ratio |
| --- | --- |
| GTAGTATCAG | 1 ± 0.017 |
| GTAGTATTAT | 0.991 ± 0.035 |
| GTAGTATTTT | 0.994 ± 0.028 |
| GTAGTCATTT | 0.992 ± 0.022 |
| GTAGTCGGAT | 1.002 ± 0.0021 |
| GTAGTGGGGG | 0.975 ± 0.027 |
| GTAGTTGGAA | 0.9968 ± 0.0085 |
| GTAGTTGTGG | 1.01 ± 0.014 |
| GTATAAAAGT | 1.01 ± 0.03 |
| GTATAAGGGG | 0.977 ± 0.026 |
| GTATAAGTTT | 0.998 ± 0.017 |
| GTATAATTCA | 0.975 ± 0.028 |
| GTATGAAGTT | 0.982 ± 0.028 |
| GTATGCCGTC | 0.988 ± 0.076 |
| GTATGCCTTC | 1 ± 0.032 |
| GTATGTAGGG | 0.995 ± 0.015 |
| GTATGTAGTG | 0.966 ± 0.023 |
| GTATGTGTCG | 1.01 ± 0.017 |
| GTATTAAACC | 1.06 ± 0.023 |
| GTATTACAGG | 1.04 ± 0.04 |
| GTATTAGAAG | 0.975 ± 0.047 |
| GTATTAGGAA | 0.985 ± 0.031 |
| GTATTAGGGT | 1 ± 0.041 |
| GTATTCGGTG | 0.982 ± 0.045 |
| GTATTGGTCG | 1.058 ± 0.0091 |

| Sequence | switch fluorescence ratio |
| --- | --- |
| GTATTTCTTA | 0.974 ± 0.0099 |
| GTATTTGGAG | 1.0226 ± 0.00041 |
| GTATTTGGGT | 0.986 ± 0.041 |
| GTATTTTAGG | 0.999 ± 0.053 |
| GTATTTTGCG | 1.12 ± 0.26 |
| GTATTTTGGC | 1.025 ± 0.0052 |
| GTCAACGCCG | 1.02 ± 0.018 |
| GTCAATTGGA | 0.992 ± 0.013 |
| GTCACACTT | 1.01 ± 0.0073 |
| GTCACCAACA | 1.27 ± 0.28 |
| GTCACGGGCG | 1.006 ± 0.0091 |
| GTCACTTATT | 1.036 ± 0.0058 |
| GTCAGAGCTA | 1.01 ± 0.025 |
| GTCAGGAGGG | 0.971 ± 0.026 |
| GTCAGGGGGA | 1.07 ± 0.14 |
| GTCAGTGTCG | 0.962 ± 0.021 |
| GTCATATGTC | 1.07 ± 0.051 |
| GTCATCATGG | 0.986 ± 0.044 |
| GTCCACTGTT | 0.996 ± 0.024 |
| GTCCGAGAAT | 0.986 ± 0.064 |
| GTCCGGGGGC | 1.13 ± 0.04 |
| GTCCGGGTTT | 1.01 ± 0.036 |
| GTCCTTTTTT | 0.97 ± 0.039 |
| GTCGAATGGG | 1 ± 0.02 |
| GTCGATTTTT | 0.992 ± 0.044 |

| Sequence | switch fluorescence ratio |
| --- | --- |
| GTCGCAAGGG | 1.15 ± 0.021 |
| GTCGCAGGAG | 1.05 ± 0.011 |
| GTCGCATGAG | 1.03 ± 0.05 |
| GTCGGAGAGC | 1.04 ± 0.039 |
| GTCGGGAGGT | 0.989 ± 0.015 |
| GTCGGGAGTG | 0.986 ± 0.065 |
| GTCGGGGTAT | 0.991 ± 0.012 |
| GTCGGGGTCA | 0.99653 ± 0.0006 |
| GTCGGGTACA | 1.008 ± 0.0085 |
| GTCGGGTTTG | 0.991 ± 0.014 |
| GTCGGTGTTG | 0.98952 ± 0.00042 |
| GTCGTAAGAG | 0.98 ± 0.041 |
| GTCGTAGGAT | 0.9915 ± 0.0065 |
| GTCGTATGAG | 1.01 ± 0.028 |
| GTCGTCGGCG | 1.02 ± 0.025 |
| GTCGTCTTTT | 1.01 ± 0.012 |
| GTCGTGCCTG | 1.04 ± 0.15 |
| GTCGTGGCAA | 1.04 ± 0.022 |
| GTCGTGTCTG | 1.004 ± 0.0065 |
| GTCGTGTGGT | 0.99 ± 0.045 |
| GTCTAACTGC | 0.962 ± 0.033 |
| GTCTAAGGGA | 0.968 ± 0.024 |
| GTCTATACAT | 0.973 ± 0.028 |
| GTCTATCTCT | 1.013 ± 0.0093 |
| GTCTCAGGTT | 1.04 ± 0.014 |

| Sequence | switch fluorescence ratio |
| --- | --- |
| GTCTCGGCAT | 1.2 ± 0.044 |
| GTCTGAGGTT | 0.963 ± 0.015 |
| GTCTGGGCTG | 0.986 ± 0.014 |
| GTCTTGGGTA | 0.963 ± 0.024 |
| GTGAAACGGT | 1.03 ± 0.043 |
| GTGAACATAT | 1.036 ± 0.0022 |
| GTGACAGAGG | 1.02 ± 0.0015 |
| GTGACTGTGT | 0.963 ± 0.014 |
| GTGAGATTGC | 0.95675 ± 0.0008 |
| GTGAGCCAGT | 1.01 ± 0.022 |
| GTGAGGAGTA | 1.001 ± 0.0093 |
| GTGAGGGGCG | 0.964 ± 0.035 |
| GTGAGGGTTT | 0.9758 ± 0.005 |
| GTGAGTGGTG | 0.978 ± 0.015 |
| GTGATATAAG | 0.986 ± 0.031 |
| GTGATATGGA | 0.992 ± 0.014 |
| GTGATCGTCG | 1.01 ± 0.017 |
| GTGATGCAGG | 0.98 ± 0.026 |
| GTGATGCTGC | 1.07 ± 0.015 |
| GTGATTCAGG | 0.989 ± 0.029 |
| GTGATTCCGA | 1.02 ± 0.029 |
| GTGATTCTTG | 0.9745 ± 0.0022 |
| GTGATTGGAG | 0.966 ± 0.025 |
| GTGCATGGGA | 0.997 ± 0.055 |
| GTGCCTAGTG | 1.017 ± 0.01 |
